# Experimental data taken from IntAct's records for PubMed 27189942.
# B1: MICAL-like protein 1 (Homo sapiens), Q8N3F8 (parent)
# chain: MAGPRGALLAWCRRQCEGYRGVEIRDLSSSFRDGLAFCAILHRHRPDLLDFDSLSKDNVFENNRLAFEVAEKELGIPALLDPNDMVSMSVPDCLSIMTYVSQYYNHFCSPGQAGVSPPRKGLAPCSPPSVAPTPVEPEDVAQGEELSSGSLSEQGTGQTPSSTCAACQQHVHLVQRYLADGRLYHRHCFRCRRCSSTLLPGAYENGPEEGTFVCAEHCARLGPGTRSGTRPGPFSQPKQQHQQQLAEDAKDVPGGGPSSSAPAGAEADGPKASPEARPQIPTKPRVPGKLQELASPPAGRPTPAPRKASESTTPAPPTPRPRSSLQQENLVEQAGSSSLVNGRLHELPVPKPRGTPKPSEGTPAPRKDPPWITLVQAEPKKKPAPLPPSSSPGPPSQDSRQVENGGTEEVAQPSPTASLESKPYNPFEEEEEDKEEEAPAAPSLATSPALGHPESTPKSLHPWYGITPTSSPKTKKRPAPRAPSASPLALHASRLSHSEPPSATPSPALSVESLSSESASQTAGAELLEPPAVPKSSSEPAVHAPGTPGNPVSLSTNSSLASSGELVEPRVEQMPQASPGLAPRTRGSSGPQPAKPCSGATPTPLLLVGDRSPVPSPGSSSPQLQVKSSCKENPFNRKPSPAASPATKKATKGSKPVRPPAPGHGFPLIKRKVQADQYIPEEDIHGEMDTIERRLDALEHRGVLLEEKLRGGLNEGREDDMLVDWFKLIHEKHLLVRRESELIYVFKQQNLEQRQADVEYELRCLLNKPEKDWTEEDRAREKVLMQELVTLIEQRNAIINCLDEDRQREEEEDKMLEAMIKKKEFQREAEPEGKKKGKFKTMKMLKLLGNKRDAKSKSPRDKS
# partner: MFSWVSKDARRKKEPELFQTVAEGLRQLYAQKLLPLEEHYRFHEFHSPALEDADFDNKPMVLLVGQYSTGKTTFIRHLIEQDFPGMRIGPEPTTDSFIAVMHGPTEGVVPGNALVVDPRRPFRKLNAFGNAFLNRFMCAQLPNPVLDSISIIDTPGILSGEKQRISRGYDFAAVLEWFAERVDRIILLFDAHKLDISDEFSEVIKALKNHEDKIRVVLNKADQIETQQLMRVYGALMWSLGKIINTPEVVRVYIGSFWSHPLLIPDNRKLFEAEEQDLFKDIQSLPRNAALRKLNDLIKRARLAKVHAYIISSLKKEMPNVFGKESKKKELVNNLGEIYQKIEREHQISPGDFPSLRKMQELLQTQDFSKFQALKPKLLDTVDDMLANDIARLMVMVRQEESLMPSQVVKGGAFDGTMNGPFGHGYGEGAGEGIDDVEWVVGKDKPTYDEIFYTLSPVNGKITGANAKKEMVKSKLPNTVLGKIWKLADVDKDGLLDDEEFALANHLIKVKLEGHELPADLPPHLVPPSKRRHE
# B2: Rabankyrin-5 (Homo sapiens), Q9P2R3 (parent)
# chain: MAEEEVAKLEKHLMLLRQEYVKLQKKLAETEKRCALLAAQANKESSSESFISRLLAIVADLYEQEQYSDLKIKVGDRHISAHKFVLAARSDSWSLANLSSTKELDLSDANPEVTMTMLRWIYTDELEFREDDVFLTELMKLANRFQLQLLRERCEKGVMSLVNVRNCIRFYQTAEELNASTLMNYCAEIIASHWDDLRKEDFSSMSAQLLYKMIKSKTEYPLHKAIKVEREDVVFLYLIEMDSQLPGKLNEADHNGDLALDLALSRRLESIATTLVSHKADVDMVDKSGWSLLHKGIQRGDLFAATFLIKNGAFVNAATLGAQETPLHLVALYSSKKHSADVMSEMAQIAEALLQAGANPNMQDSKGRTPLHVSIMAGNEYVFSQLLQCKQLDLELKDHEGSTALWLAVQHITVSSDQSVNPFEDVPVVNGTSFDENSFAARLIQRGSHTDAPDTATGNCLLQRAAGAGNEAAALFLATNGAHVNHRNKWGETPLHTACRHGLANLTAELLQQGANPNLQTEEALPLPKEAASLTSLADSVHLQTPLHMAIAYNHPDVVSVILEQKANALHATNNLQIIPDFSLKDSRDQTVLGLALWTGMHTIAAQLLGSGAAINDTMSDGQTLLHMAIQRQDSKSALFLLEHQADINVRTQDGETALQLAIRNQLPLVVDAICTRGADMSVPDEKGNPPLWLALANNLEDIASTLVRHGCDATCWGPGPGGCLQTLLHRAIDENNEPTACFLIRSGCDVNSPRQPGANGEGEEEARDGQTPLHLAASWGLEETVQCLLEFGANVNAQDAEGRTPIHVAISSQHGVIIQLLVSHPDIHLNVRDRQGLTPFACAMTFKNNKSAEAILKRESGAAEQVDNKGRNFLHVAVQNSDIESVLFLISVHANVNSRVQDASKLTPLHLAVQAGSEIIVRNLLLAGAKVNELTKHRQTALHLAAQQDLPTICSVLLENGVDFAAVDENGNNALHLAVMHGRLNNIRVLLTECTVDAEAFNLRGQSPLHILGQYGKENAAAIFDLFLECMPGYPLDKPDADGSTVLLLAYMKGNANLCRAIVRSGARLGVNNNQGVNIFNYQVATKQLLFRLLDMLSKEPPWCDGSYCYECTARFGVTTRKHHCRHCGRLLCHKCSTKEIPIIKFDLNKPVRVCNICFDVLTLGGVS
# partner: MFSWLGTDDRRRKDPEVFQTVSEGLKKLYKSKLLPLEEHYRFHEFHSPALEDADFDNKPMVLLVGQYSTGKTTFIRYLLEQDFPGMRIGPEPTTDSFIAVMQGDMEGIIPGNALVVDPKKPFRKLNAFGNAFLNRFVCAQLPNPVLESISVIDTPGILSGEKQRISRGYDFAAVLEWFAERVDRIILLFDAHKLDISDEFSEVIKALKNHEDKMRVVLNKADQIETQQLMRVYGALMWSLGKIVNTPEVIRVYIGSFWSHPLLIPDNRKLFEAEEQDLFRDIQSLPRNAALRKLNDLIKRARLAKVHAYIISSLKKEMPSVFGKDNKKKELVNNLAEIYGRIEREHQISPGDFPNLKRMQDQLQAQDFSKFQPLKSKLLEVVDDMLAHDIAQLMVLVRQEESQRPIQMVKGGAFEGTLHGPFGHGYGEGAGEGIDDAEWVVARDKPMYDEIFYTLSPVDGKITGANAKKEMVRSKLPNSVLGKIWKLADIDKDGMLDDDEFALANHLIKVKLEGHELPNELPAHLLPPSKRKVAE
# B3: Rabankyrin-5 (Homo sapiens), Q9P2R3 (parent)
# chain: B2 chain
# partner: B1 partner
# B4: EH domain-containing protein 3 (Homo sapiens), Q9NZN3 (parent)
# chain: B2 partner
# partner: B2 chain
# B5: MICAL-like protein 1 (Homo sapiens), Q8N3F8 (parent)
# chain: B1 chain
# partner: B2 partner
# Variants of: B1
# Conditions: with ehd1_human EHD1, Q9H4M9
row,effect of a mutation on the interaction,Variant
1,decreasing interaction,E429A;E430A;E431A;E432A;D433A
2,disrupting interaction,E428A;E429A;E430A;E431A;E432A;D433A

# Variants of: B2
# Conditions: with ehd3_human EHD3, Q9NZN3
row,effect of a mutation on the interaction,Variant
1,causing an interaction,V420A
2,causing an interaction,V420Y
3,causing an interaction,Q418K
4,causing an interaction,Q418K;S419P;V420Y

# Variants of: B3
# Conditions: with ehd1_human EHD1, Q9H4M9
row,effect of a mutation on the interaction,Variant
1,disrupting interaction,S419P

# Variants of: B4
# Conditions: with anfy1_human ANKFY1, Q9P2R3
row,effect of a mutation on the interaction,Variant
1,causing an interaction,N519A;E520D

# Variants of: B4
# Conditions: with anfy1_human ANKFY1, Q9P2R3
# Remark: another data set of the same source
row,effect of a mutation on the interaction,Variant
1,causing an interaction,E520D
2,causing an interaction,N519A

# Variants of: B5
# Conditions: with ehd3_human EHD3, Q9NZN3
row,effect of a mutation on the interaction,Variant
1,disrupting interaction,E428A;E429A;E430A;E431A;E432A;D433A
